T1: human NMI (N-myc Interacting protein) (human, UniProt Q13287 1-307, limits assumed)
T1 construct: Immunogen and ELISA coating antigen; also called hNMI; antigen 1
T1 sequence (looked up): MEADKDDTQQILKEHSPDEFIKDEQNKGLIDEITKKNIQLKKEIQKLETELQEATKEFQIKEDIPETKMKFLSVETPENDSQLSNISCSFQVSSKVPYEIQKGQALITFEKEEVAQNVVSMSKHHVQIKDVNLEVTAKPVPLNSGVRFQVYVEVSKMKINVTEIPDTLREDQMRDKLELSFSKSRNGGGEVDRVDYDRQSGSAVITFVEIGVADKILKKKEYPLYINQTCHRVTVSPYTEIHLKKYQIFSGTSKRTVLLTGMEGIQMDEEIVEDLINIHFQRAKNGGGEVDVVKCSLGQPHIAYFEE


Columns and labels:
[1] = biological target: T1, human NMI (N-myc Interacting protein); assay: I-ELISA, hNMI coated 1 ug/mL; antibody 625 ng/mL
[2] = biological target: T1, human NMI (N-myc Interacting protein); assay: indirect ELISA, human NMI coated; supernatant 1/3
[3] = biological target: T1, human NMI (N-myc Interacting protein); assay: indirect ELISA, human NMI coated; supernatant 1/9
[4] = biological target: T1, human NMI (N-myc Interacting protein); assay: I-ELISA, hNMI coated 1 ug/mL; antibody 1250 ng/mL
[5] = biological target: T1, human NMI (N-myc Interacting protein); assay: I-ELISA, hNMI coated 1 ug/mL; antibody 2500 ng/mL
[6] = biological target: T1, human NMI (N-myc Interacting protein); assay: indirect ELISA, human NMI coated; supernatant 1/27
[7] = biological target: T1, human NMI (N-myc Interacting protein); assay: indirect ELISA, human NMI coated; supernatant 1/81
[8] = biological target: T1, human NMI (N-myc Interacting protein); assay: indirect ELISA, human NMI coated (repeats Table 1)
[9] = biological target: T1, human NMI (N-myc Interacting protein); assay: I-ELISA, hNMI coated 1 ug/mL; antibody 312.5 ng/mL
[10] = biological target: T1, human NMI (N-myc Interacting protein); assay: indirect ELISA, human NMI coated; supernatant 1/243
[11] = biological target: T1, human NMI (N-myc Interacting protein); assay: indirect ELISA, human NMI coated; supernatant 1/729
[12] = biological target: T1, human NMI (N-myc Interacting protein); assay: I-ELISA, hNMI coated 1 ug/mL; antibody 156.25 ng/mL
[13] = biological target: T1, human NMI (N-myc Interacting protein); assay: I-ELISA, hNMI coated 1 ug/mL; antibody 78.125 ng/mL
[14] = biological target: T1, human NMI (N-myc Interacting protein); assay: indirect ELISA, human NMI coated; supernatant 1/2187
[15] = biological target: T1, human NMI (N-myc Interacting protein); assay: indirect ELISA, human NMI coated; supernatant 1/6561
[16] = biological target: T1, human NMI (N-myc Interacting protein); assay: I-ELISA, hNMI coated 1 ug/mL; antibody 39.0625 ng/mL
[17] = biological target: T1, human NMI (N-myc Interacting protein); assay: indirect ELISA, human NMI coated; supernatant 1/19683
[18] = biological target: T1, human NMI (N-myc Interacting protein); assay: indirect ELISA, human NMI coated; supernatant 1/59049
[19] = biological target: T1, human NMI (N-myc Interacting protein); assay: I-ELISA, hNMI coated 1 ug/mL; antibody 19.53125 ng/mL
[20] = biological target: T1, human NMI (N-myc Interacting protein); assay: I-ELISA, hNMI coated 1 ug/mL; antibody 9.765625 ng/mL
[21] = biological target: T1, human NMI (N-myc Interacting protein); assay: I-ELISA, hNMI coated 1 ug/mL; antibody 1.2207031 ng/mL
[22] = biological target: T1, human NMI (N-myc Interacting protein); assay: I-ELISA, hNMI coated 1 ug/mL; antibody 2.4414063 ng/mL
[23] = biological target: T1, human NMI (N-myc Interacting protein); assay: I-ELISA, hNMI coated 1 ug/mL; antibody 4.8828125 ng/mL
[24] = biological target: T1, human NMI (N-myc Interacting protein); assay: indirect ELISA, human NMI coated; supernatant undiluted
[25] = biological target: T1, human NMI (N-myc Interacting protein); assay: indirect ELISA, human NMI coated; supernatant dilution series
[26] = biological target: T1, human NMI (N-myc Interacting protein); assay: sandwich ELISA; coating antibody 2.5 ug/mL, detection 94C4-biotin 0.5 ug/mL
[27] = biological target: T1, human NMI (N-myc Interacting protein); assay: I-ELISA, hNMI coated; upper end of the group's range, tied to 98G10 by Table 17
[28] = biological target: T1, human NMI (N-myc Interacting protein); assay: I-ELISA, hNMI coated; lower end of the group's range, tied to 94C4 by Table 17

Binder | OD450 [1] [OD450] | ELISA OD [2] [OD] | ELISA OD [3] [OD] | OD450 [4] [OD450] | OD450 [5] [OD450] | ELISA OD [6] [OD] | ELISA OD [7] [OD] | EC50 [8] [ng/mL] | OD450 [9] [OD450] | ELISA OD [10] [OD] | ELISA OD [11] [OD] | OD450 [12] [OD450] | OD450 [13] [OD450] | ELISA OD [14] [OD] | ELISA OD [15] [OD] | OD450 [16] [OD450] | ELISA OD [17] [OD] | ELISA OD [18] [OD] | OD450 [19] [OD450] | OD450 [20] [OD450] | other results
98G10 (antibody, V domains shown, Rabbit monoclonal antibody; also called 98G10-1; 98G10-1-biotin (biotin-labelled form)) VH: QEQLEESGGDLVKPEGSLTLTCTASGFSFSASYWICWVRQAPGKGLEWIACIYGGSSGSAYYASWAKGRFTISKTSSTTVTLQMTSLTAADTATYFCARAGYYNYGSAGDIYPSSFKLWGPGTLVTVSS VL: DIVMTQTPASVEAAVGGTVTINCQASQSISTALAWYQQKPGQPPKLLIYTASKVASGVPSRFSGSGSGTQFTLTISDLECADAATYYCQNYYYSSSSITFGGGTEVVVK | 2.08 | 3.45 | 3.39 | 2.15 | 2.17 | 3.32 | 3.29 | 1.22 | 1.97 | 2.97 | 2.48 | 1.71 | 1.18 | 1.72 | 1.07 | 0.67 | 0.528 | 0.237 | 0.41 | 0.217 | OD450 [21]: 0.065 OD450; OD450 [22]: 0.081 OD450; OD450 [23]: 0.115 OD450; ELISA OD [24]: 3.45 OD; EC50 [25]: 1.22 ng/mL; detection limit (sensitivity) [26]: 60 pg/mL; EC50 [27]: 70 ng/mL
94C4 (antibody, V domains shown, Rabbit monoclonal antibody; also called 94C4-1; 94C4-1-biotin (biotin-labelled form)) VH: QSLEESGGGLVQPEGSLTLTCKASGFDFSSNAMCWVRQAPGKGLEWIACISSASSGSSGSTYYASWAKGRFTISKTSSTTVTLQMTSLTAADMATYFCARDGYDLWGPGTLVTVSS VL: QVLTQTPSSVSAAVGGTVTISCQSSPSVYNNYLSWFQQKPGQSPKLLIYRVSTLASGVPSRFSGSGSGTQFTLTISGVQCDDAATYYCAGGYDSASDTYVFGGGTEVVVK | 2.19 | 3.5 | 3.58 | 2.19 | 2.17 | 3.47 | 3.43 | 0.189 | 2.1 | 3.29 | 2.98 | 1.93 | 1.64 | 2.48 | 2.15 | 1.22 | 1.28 | 0.585 | 0.833 | 0.482 | OD450 [21]: 0.092 OD450; OD450 [22]: 0.142 OD450; OD450 [23]: 0.262 OD450; ELISA OD [24]: 3.46 OD; EC50 [25]: 0.189 ng/mL; EC50 [28]: 30 ng/mL
